Laboratory results taken from patent US11179342B2, “Peptide coacervates and methods of use thereof” (NANYANG TECHNOLOGICAL UNIVERSITY, priority 2018, dated 2021).
Entries after “also recorded” stand apart in the source; their conditions may differ.

B1: V3-N: N-terminus fragment of DgHBP-1 Lys mutant after trypsin cleavage (protein)
chain: MQLYGAPAVGGVVENAVNAAESGAAATHDAQGAYAEADTAGVLDVNHAEHHDGVHDASGYGFGGLAGHGGFAGHGLYGPGFAGHGLLGAGYAGLGLHGAGFAK
modifications: HBP-1 derived peptide V3-N
notes: N-terminus fragment of DgHBP-1 Lys mutant after trypsin cleavage
B2: V4-N: N-terminus fragment of DgHBP-1 Lys mutant after trypsin cleavage (protein)
chain: MQLYGAPAVGGVVENAVNAAESGAAATHDAQGAYAEADTAGVLDVNHAEHHDGVHDASGYGFGGLAGHGGFAGHGLYGPGFAGHGLLGAGYAGLGLHK
modifications: HBP-1 derived peptide V4-N
notes: as for B1
B3: V5-N: N-terminus fragment of DgHBP-1 Lys mutant after trypsin cleavage (protein)
chain: MQLYGAPAVGGVVENAVNAAESGAAATHDAQGAYAEADTAGVLDVNHAEHHDGVHDASGYGFGGLAGHGGFAGHGLYGPGFAGHGLLGAGYAGLGLHGAGFAGHGLHGAGFAK
modifications: HBP-1 derived peptide V5-N
notes: as for B1
B4: DgHBP-1: recombinant histidine-rich beak protein 1 of Humboldt squid (Dosidicus gigas) (protein)
chain: QLYGAPAVGGVVENAVNAAESGAAATHDAQGAYAEADTAGVLDVNHAEHHDGVHDASGYGFGGLAGHGGFAGHGLYGPGFAGHGLLGAGYAGLGLHGAGFAGHGLHGAGFAGHGLYGAGFAGHGLHGFAGHGLYGAGFAGHGLGLGGLHGALGHGALAHY
modifications: Dosidicus gigas
B5: V2-C: DgHBP-1 variant lacking the first 31 amino acids of the repetitive region, truncated at G98 (protein)
chain: MHHHHHHSSGVDLGTENLYFQSMMGAGFAGHGLHGAGFAGHGLYGAGFAGHGLHGFAGHGLYGAGFAGHGLGLGGLHGALGHGALAHY
modifications: HBP-1 derived peptide V2-C
notes: DgHBP-1 variant lacking the first 31 amino acids of the repetitive region, truncated at G98
B6: V1-C: DgHBP-1 mutant lacking the first 66 amino acids, containing all C-terminal modular repeats (protein)
chain: MHHHHHHSSGVDLGTENLYFQSMMGHGGFAGHGLYGPGFAGHGLLGAGYAGLGLHGAGFAGHGLHGAGFAGHGLYGAGFAGHGLHGFAGHGLYGAGFAGHGLGLGGLHGALGHGALAHY
modifications: HBP-1 derived peptide V1-C
notes: DgHBP-1 mutant lacking the first 66 amino acids, containing all C-terminal modular repeats
B7: V6-N: N-terminus fragment of DgHBP-1 Lys mutant after trypsin cleavage (protein)
chain: MQLYGAPAVGGVVENAVNAAESGAAATHDAQGAYAEADTAGVLDVNHAEHHDGVHDASGYGFGGLAGHGGFAGHGLYGPGFAGHGLLGAGYAGLGLHGAGFAGHGLHGAGFAGHGLYK
modifications: HBP-1 derived peptide V6-N
notes: as for B1
B8: C-terminal (A82-R172): DgHBP-2 C-terminal trypsin fragment containing the whole repetitive region (protein)
chain: AAQGANAVHNDAAQSHSALAAANTFGHGHAPYAAYGHGVYGHGPYGHGPYGHGLYGHGLYGHGPYGHGLYGHGAFGHGLNAYAPLVGHGLR
modifications: C-terminal fargment of HBP-2
notes: DgHBP-2 C-terminal trypsin fragment containing the whole repetitive region
B9: N-terminal (M1-R81) fragment: DgHBP-2 N-terminal trypsin fragment lacking the modular repeats (protein)
chain: MQFFGAGPFNTAHHSAVSDAAAAHHDAAGEYAQNAATGLLDTHHNENHDMTHDLANGYGLHEHDEQHHGLADGLHQEYAAR
modifications: N-terminal fragment of HBP-2
notes: DgHBP-2 N-terminal trypsin fragment lacking the modular repeats
B10: V7-N: N-terminus fragment of DgHBP-1 Lys mutant after trypsin cleavage (protein)
chain: MQLYGAPAVGGVVENAVNAAESGAAATHDAQGAYAEADTAGVLDVNHAEHHDGVHDASGYGFGGLAGHGGFAGHGLYGPGFAGHGLLGAGYAGLGLHGAGFAGHGLHGAGFAGHGLYGAGFAK
modifications: HBP-1 derived peptide V7-N
notes: as for B1

What was measured:
Type in all cases: physicochemical
[1] = Liquid-liquid phase separation by optical microscopy; conditions: for morphology of the separated phase: optical micrographs after LLPS; for ability to undergo LLPS / phase separation: various pH and salt (NaCl) concentration; for range of conditions allowing LLPS: compared among variants; for highest pH at which LLPS was observed: N-variants, high salt; for minimal peptide concentration for LLPS at the highest pH: V7-N at pH 8, V6-N at pH 7, high salt
Experimental: In Example 2 below, phase separation behavior of protein variants and peptides was studied using a Zeiss Axio Scope A1 microscope (Carl Zeiss Pte Ltd., Germany) in the reflection mode, with differential interference contrast (DIC) filters. Images were taken with an AxioCam MRc 5 camera under the control of AxioVision software.
Liquid-liquid phase separation properties of protein variants and peptides at different buffer conditions were assessed using the method described in (Tan et al, Nat. Chem. Biol. 11, 488-495). Briefly, protein/peptide stock solution (10 mg/mL in 10 mM acetic acid, pH 3.3) was added to a buffer solution in a volume ratio 1:5 (protein/peptide stock:buffer). The mixture was then pipetted onto a microscopy glass slide and imaged using the optical microscope.

[2] = Circular dichroism spectroscopy of insulin
From the text: Circular dichroism (CD) spectra was collected using a quartz cuvette of 0.2/0.5 mm optical pathlength. Data collection was done on AVIV 420 Circular Dichroism spectrometer with the following parameters: average of three scans per experiment between wavelength range from 190 to 250 nm, 1.0 nm wavelength steps with 1.00 nm bandwidth and 0.1 s averaging time. Each experiment was repeated for 3 times and averaged to obtain the final spectrum. The final spectrum was then smoothed and plotted using originPro9.1.

[3] = Dynamic light scattering of GY-23 peptide
Experimental: FIGS. 30A-30C. SAXS and DLS of GY-23 peptide. (A) SAXS experimental curves of the peptide before and after coacervation. After LLPS, the dilute and coacervate-rich phases were measured following centrifugation. The q-3 power-law region of the scattering data is highlighted, with the black line a guide for the eye. The calculated fit for the peptide assemblies from the IFT method is also presented as a continuous red line. (B) Corresponding p(r) profile calculated from the SAXS data in (A) using Eq. 1 (materials and methods). (C) Hydrodynamic diameter (DH) measured by DLS of GY-23 in acetic acid (pH 3.3) and after coacervation (pH 7.0).
FIGS. 34A-34B Correlation functions of the DLS measurements of GY-23 peptide before and after coacervation (FIG. 33C) showing the intensity correlation function, C(τ) vs. the correlation time, τ. (A) Sample before coacervation (10 mM in acetic acid, pH 3.3). The curve with a single decay at short correlation times represents a monomodal distribution of rather small particles in the nanometer range. (B) Sample after LLPS (coacervation buffer, pH 7.0).

Row | Molecule | morphology of the separated phase [1] | ability to undergo LLPS / phase separation [1] | also measured
1 | GHGLYGHGLHGHGLHGHGLHGHGLY (GHGLYGHGLHGHGLHGHGLHGHGLY) [GY-25-V2] | only formed micro-droplets | – | –
2 | GH-25: synthetic peptide of HBP-1 repeats harboring only one GHGLY motif (GHGLHGAGFAGHGLYGAGFAGHGLH; HBP-1 derived peptide GH-25) | – | remained in solution in all tested buffer conditions | –
3 | GA-25: synthetic peptide of HBP-1 repeats harboring only one GHGLY motif (GAGFAGHGLHGAGFAGHGLYGAGFA; HBP-1 derived peptide GA-25) | – | remained in solution in all tested buffer conditions | –
4 | released insulin: insulin released from dissociated coacervates | – | – | CD: characteristic minima of α-helices at 208 and 222 nm ([2]; after coacervation and release): still visible
5 | GHGLYGAGFAGAGFAGAGFAGHGLY (GHGLYGAGFAGAGFAGAGFAGHGLY) [GY-25-V1] | dense and compact hydrogel | – | –
6 | insulin [reference compound] | – | – | CD: secondary structure ([2]; pH 5.5 to 7.5): not disrupted
7 | GHGLY GAGFA GHGLH GFA GHGLY (GHGLYGAGFAGHGLHGFAGHGLY) [GY-23] | coacervate micro-droplets suspended in solution as well as a dense hydrogel-like structure; also recorded: micro-droplets as well as hydrogel-like condensed coacervates | phase-separated | hydrodynamic diameter (DH) ([3]; acetic acid (pH 3.3), before LLPS): ca. 8 nm; hydrodynamic diameter (DH) ([3]; pH 7.0, initiation of LLPS): around 50 nm
8 | V3-C: C-terminus fragment of DgHBP-1 Lys mutant after trypsin cleavage, longest section of repetitive region (GHGLHGAGFAGHGLYGAGFAGHGLHGFAGHGLYGAGFAGHGLGLGGLHGALGHGALAHY; HBP-1 derived peptide V3-C) | – | – | range of conditions allowing LLPS [1]: broadest pH range among all tested variants; lowest protein concentration of phase separation ([1]; pH 8): 30 µM
9 | GY-15-V1: 3 copies of the GHGLY motif arranged in tandem (GHGLYGHGLYGHGLY) | – | no phase separation was observed | –
10 | GHGLY [pentapeptide] | – | no phase separation was observed | –
11 | GY-15-V2: GAGFA motif flanked by GHGLY (GHGLYGAGFAGHGLY; Artificial peptide GY-15-V2) | – | no phase separation was observed | –
12 | GAGFA [pentapeptide] | – | no phase separation was observed | –
13 | GHGLY GHGLY GHGLY GHGLY (GHGLYGHGLYGHGLYGHGLY) [GY-20] | only formed micro-droplets | Phase separation was observed | –
14 | B1 | – | could not be induced | –
15 | B2 | – | could not be induced | –
16 | B3 | hydrogels | only at high salt concentrations | highest pH at which LLPS was observed [1]: ≤ 6; range of conditions allowing LLPS [1]: only under narrow conditions
17 | B4 | – | – | pH range of LLPS ([1]; at minimal concentration): 6.5-7.5; minimal concentration for LLPS ([1]; pH range 6.5-7.5): 20 to 30 µM
18 | B5 | – | formed coacervates | protein concentration required to form coacervates [1]: ca. 30 μmol; ability to undergo LLPS / phase separation ([1]; listed as V-2C): underwent LLPS in the same way as full-length protein
19 | B6 | – | underwent phase separation and formed coacervates; also recorded: underwent LLPS in the same way as full-length protein | –
20 | B7 | hydrogels | only at high salt concentrations | highest pH at which LLPS was observed [1]: 7; minimal peptide concentration for LLPS at the highest pH [1]: 400 μM; range of conditions allowing LLPS [1]: over a wider range of conditions
21 | B8 | – | phase-separated into coacervates | –
22 | B9 | – | only the C-terminal fragment phase-separated | –
23 | B10 | hydrogels | only at high salt concentrations | highest pH at which LLPS was observed [1]: 8; minimal peptide concentration for LLPS at the highest pH [1]: at least 500 μM; range of conditions allowing LLPS [1]: over a wider range of conditions
